# From PMC4546403
# B1: Drosophila Smo (dSmo): N95Q (protein)
# parent chain: MQYLNFPRMPNIMMFLEVAILCLWVVADASASSAKFGSTTPASAQQSDVELEPINGTLNYRLYAKKGRDDKPWFDGLDSRHIQCVRRARCYPTSNATNTCFGSKLPYELSSLDLTDFHTEKELNDKLNDYYALKHVPKCWAAIQPFLCAVFKPKCEKINGEDMVYLPSYEMCRITMEPCRILYNTTFFPKFLRCNETLFPTKCTNGARGMKFNGTGQCLSPLVPTDTSASYYPGIEGCGVRCKDPLYTDDEHRQIHKLIGWAGSICLLSNLFVVSTFFIDWKNANKYPAVIVFYINLCFLIACVGWLLQFTSGSREDIVCRKDGTLRHSEPTAGENLSCIVIFVLVYYFLTAGMVWFVFLTYAWHWRAMGHVQDRIDKKGSYFHLVAWSLPLVLTITTMAFSEVDGNSIVGICFVGYINHSMRAGLLLGPLCGVILIGGYFITRGMVMLFGLKHFANDIKSTSASNKIHLIIMRMGVCALLTLVFILVAIACHVTEFRHADEWAQSFRQFIICKISSVFEEKSSCRIENRPSVGVLQLHLLCLFSSGIVMSTWCWTPSSIETWKRYIRKKCGKEVVEEVKMPKHKVIAQTWAKRKDFEDKGRLSITLYNTHTDPVGLNFDVNDLNSSETNDISSTWAAYLPQCVKRRMALTGAATGNSSSHGPRKNSLDSEISVSVRHVSVESRRNSVDSQVSVKIAEMKTKVASRSRGKHGGSSSNRRTQRRRDYIAAATGKSSRRRESSTSVESQVIALKKTTYPNASHKVGVFAHHSSKKQHNYTSSMKRRTANAGLDPSILNEFLQKNGDFIFPFLQNQDMSSSSEEDNSRASQKIQDLNVVVKQQEISEDDHDGIKIEELPNSKQVALENFLKNIKKSNESNSNRHSRNSARSQSKKSQKRHLKNPAADLDFRKDCVKYRSNDSLSCSSEELDVALDVGSLLNSSFSGISMGKPHSRNSKTSCDVGIQANPFELVPSYGEDELQQAMRLLNAASRQRTEAANEDFGGTELQGLLGHSHRHQREPTFMSESDKLKMLLLPSK
# B2: Drosophila Smo (dSmo): N184Q,N336Q (protein)
# parent chain: MQYLNFPRMPNIMMFLEVAILCLWVVADASASSAKFGSTTPASAQQSDVELEPINGTLNYRLYAKKGRDDKPWFDGLDSRHIQCVRRARCYPTSNATNTCFGSKLPYELSSLDLTDFHTEKELNDKLNDYYALKHVPKCWAAIQPFLCAVFKPKCEKINGEDMVYLPSYEMCRITMEPCRILYNTTFFPKFLRCNETLFPTKCTNGARGMKFNGTGQCLSPLVPTDTSASYYPGIEGCGVRCKDPLYTDDEHRQIHKLIGWAGSICLLSNLFVVSTFFIDWKNANKYPAVIVFYINLCFLIACVGWLLQFTSGSREDIVCRKDGTLRHSEPTAGENLSCIVIFVLVYYFLTAGMVWFVFLTYAWHWRAMGHVQDRIDKKGSYFHLVAWSLPLVLTITTMAFSEVDGNSIVGICFVGYINHSMRAGLLLGPLCGVILIGGYFITRGMVMLFGLKHFANDIKSTSASNKIHLIIMRMGVCALLTLVFILVAIACHVTEFRHADEWAQSFRQFIICKISSVFEEKSSCRIENRPSVGVLQLHLLCLFSSGIVMSTWCWTPSSIETWKRYIRKKCGKEVVEEVKMPKHKVIAQTWAKRKDFEDKGRLSITLYNTHTDPVGLNFDVNDLNSSETNDISSTWAAYLPQCVKRRMALTGAATGNSSSHGPRKNSLDSEISVSVRHVSVESRRNSVDSQVSVKIAEMKTKVASRSRGKHGGSSSNRRTQRRRDYIAAATGKSSRRRESSTSVESQVIALKKTTYPNASHKVGVFAHHSSKKQHNYTSSMKRRTANAGLDPSILNEFLQKNGDFIFPFLQNQDMSSSSEEDNSRASQKIQDLNVVVKQQEISEDDHDGIKIEELPNSKQVALENFLKNIKKSNESNSNRHSRNSARSQSKKSQKRHLKNPAADLDFRKDCVKYRSNDSLSCSSEELDVALDVGSLLNSSFSGISMGKPHSRNSKTSCDVGIQANPFELVPSYGEDELQQAMRLLNAASRQRTEAANEDFGGTELQGLLGHSHRHQREPTFMSESDKLKMLLLPSK
# B3: Drosophila Smo (dSmo): N184Q (protein)
# parent chain: MQYLNFPRMPNIMMFLEVAILCLWVVADASASSAKFGSTTPASAQQSDVELEPINGTLNYRLYAKKGRDDKPWFDGLDSRHIQCVRRARCYPTSNATNTCFGSKLPYELSSLDLTDFHTEKELNDKLNDYYALKHVPKCWAAIQPFLCAVFKPKCEKINGEDMVYLPSYEMCRITMEPCRILYNTTFFPKFLRCNETLFPTKCTNGARGMKFNGTGQCLSPLVPTDTSASYYPGIEGCGVRCKDPLYTDDEHRQIHKLIGWAGSICLLSNLFVVSTFFIDWKNANKYPAVIVFYINLCFLIACVGWLLQFTSGSREDIVCRKDGTLRHSEPTAGENLSCIVIFVLVYYFLTAGMVWFVFLTYAWHWRAMGHVQDRIDKKGSYFHLVAWSLPLVLTITTMAFSEVDGNSIVGICFVGYINHSMRAGLLLGPLCGVILIGGYFITRGMVMLFGLKHFANDIKSTSASNKIHLIIMRMGVCALLTLVFILVAIACHVTEFRHADEWAQSFRQFIICKISSVFEEKSSCRIENRPSVGVLQLHLLCLFSSGIVMSTWCWTPSSIETWKRYIRKKCGKEVVEEVKMPKHKVIAQTWAKRKDFEDKGRLSITLYNTHTDPVGLNFDVNDLNSSETNDISSTWAAYLPQCVKRRMALTGAATGNSSSHGPRKNSLDSEISVSVRHVSVESRRNSVDSQVSVKIAEMKTKVASRSRGKHGGSSSNRRTQRRRDYIAAATGKSSRRRESSTSVESQVIALKKTTYPNASHKVGVFAHHSSKKQHNYTSSMKRRTANAGLDPSILNEFLQKNGDFIFPFLQNQDMSSSSEEDNSRASQKIQDLNVVVKQQEISEDDHDGIKIEELPNSKQVALENFLKNIKKSNESNSNRHSRNSARSQSKKSQKRHLKNPAADLDFRKDCVKYRSNDSLSCSSEELDVALDVGSLLNSSFSGISMGKPHSRNSKTSCDVGIQANPFELVPSYGEDELQQAMRLLNAASRQRTEAANEDFGGTELQGLLGHSHRHQREPTFMSESDKLKMLLLPSK
# B4: Drosophila Smo (dSmo): N195Q (protein)
# parent chain: MQYLNFPRMPNIMMFLEVAILCLWVVADASASSAKFGSTTPASAQQSDVELEPINGTLNYRLYAKKGRDDKPWFDGLDSRHIQCVRRARCYPTSNATNTCFGSKLPYELSSLDLTDFHTEKELNDKLNDYYALKHVPKCWAAIQPFLCAVFKPKCEKINGEDMVYLPSYEMCRITMEPCRILYNTTFFPKFLRCNETLFPTKCTNGARGMKFNGTGQCLSPLVPTDTSASYYPGIEGCGVRCKDPLYTDDEHRQIHKLIGWAGSICLLSNLFVVSTFFIDWKNANKYPAVIVFYINLCFLIACVGWLLQFTSGSREDIVCRKDGTLRHSEPTAGENLSCIVIFVLVYYFLTAGMVWFVFLTYAWHWRAMGHVQDRIDKKGSYFHLVAWSLPLVLTITTMAFSEVDGNSIVGICFVGYINHSMRAGLLLGPLCGVILIGGYFITRGMVMLFGLKHFANDIKSTSASNKIHLIIMRMGVCALLTLVFILVAIACHVTEFRHADEWAQSFRQFIICKISSVFEEKSSCRIENRPSVGVLQLHLLCLFSSGIVMSTWCWTPSSIETWKRYIRKKCGKEVVEEVKMPKHKVIAQTWAKRKDFEDKGRLSITLYNTHTDPVGLNFDVNDLNSSETNDISSTWAAYLPQCVKRRMALTGAATGNSSSHGPRKNSLDSEISVSVRHVSVESRRNSVDSQVSVKIAEMKTKVASRSRGKHGGSSSNRRTQRRRDYIAAATGKSSRRRESSTSVESQVIALKKTTYPNASHKVGVFAHHSSKKQHNYTSSMKRRTANAGLDPSILNEFLQKNGDFIFPFLQNQDMSSSSEEDNSRASQKIQDLNVVVKQQEISEDDHDGIKIEELPNSKQVALENFLKNIKKSNESNSNRHSRNSARSQSKKSQKRHLKNPAADLDFRKDCVKYRSNDSLSCSSEELDVALDVGSLLNSSFSGISMGKPHSRNSKTSCDVGIQANPFELVPSYGEDELQQAMRLLNAASRQRTEAANEDFGGTELQGLLGHSHRHQREPTFMSESDKLKMLLLPSK
# B5: Drosophila Smo (dSmo): N95Q,N336Q (protein)
# parent chain: MQYLNFPRMPNIMMFLEVAILCLWVVADASASSAKFGSTTPASAQQSDVELEPINGTLNYRLYAKKGRDDKPWFDGLDSRHIQCVRRARCYPTSNATNTCFGSKLPYELSSLDLTDFHTEKELNDKLNDYYALKHVPKCWAAIQPFLCAVFKPKCEKINGEDMVYLPSYEMCRITMEPCRILYNTTFFPKFLRCNETLFPTKCTNGARGMKFNGTGQCLSPLVPTDTSASYYPGIEGCGVRCKDPLYTDDEHRQIHKLIGWAGSICLLSNLFVVSTFFIDWKNANKYPAVIVFYINLCFLIACVGWLLQFTSGSREDIVCRKDGTLRHSEPTAGENLSCIVIFVLVYYFLTAGMVWFVFLTYAWHWRAMGHVQDRIDKKGSYFHLVAWSLPLVLTITTMAFSEVDGNSIVGICFVGYINHSMRAGLLLGPLCGVILIGGYFITRGMVMLFGLKHFANDIKSTSASNKIHLIIMRMGVCALLTLVFILVAIACHVTEFRHADEWAQSFRQFIICKISSVFEEKSSCRIENRPSVGVLQLHLLCLFSSGIVMSTWCWTPSSIETWKRYIRKKCGKEVVEEVKMPKHKVIAQTWAKRKDFEDKGRLSITLYNTHTDPVGLNFDVNDLNSSETNDISSTWAAYLPQCVKRRMALTGAATGNSSSHGPRKNSLDSEISVSVRHVSVESRRNSVDSQVSVKIAEMKTKVASRSRGKHGGSSSNRRTQRRRDYIAAATGKSSRRRESSTSVESQVIALKKTTYPNASHKVGVFAHHSSKKQHNYTSSMKRRTANAGLDPSILNEFLQKNGDFIFPFLQNQDMSSSSEEDNSRASQKIQDLNVVVKQQEISEDDHDGIKIEELPNSKQVALENFLKNIKKSNESNSNRHSRNSARSQSKKSQKRHLKNPAADLDFRKDCVKYRSNDSLSCSSEELDVALDVGSLLNSSFSGISMGKPHSRNSKTSCDVGIQANPFELVPSYGEDELQQAMRLLNAASRQRTEAANEDFGGTELQGLLGHSHRHQREPTFMSESDKLKMLLLPSK
# B6: Drosophila Smo (dSmo): N195Q,N336Q (protein)
# parent chain: MQYLNFPRMPNIMMFLEVAILCLWVVADASASSAKFGSTTPASAQQSDVELEPINGTLNYRLYAKKGRDDKPWFDGLDSRHIQCVRRARCYPTSNATNTCFGSKLPYELSSLDLTDFHTEKELNDKLNDYYALKHVPKCWAAIQPFLCAVFKPKCEKINGEDMVYLPSYEMCRITMEPCRILYNTTFFPKFLRCNETLFPTKCTNGARGMKFNGTGQCLSPLVPTDTSASYYPGIEGCGVRCKDPLYTDDEHRQIHKLIGWAGSICLLSNLFVVSTFFIDWKNANKYPAVIVFYINLCFLIACVGWLLQFTSGSREDIVCRKDGTLRHSEPTAGENLSCIVIFVLVYYFLTAGMVWFVFLTYAWHWRAMGHVQDRIDKKGSYFHLVAWSLPLVLTITTMAFSEVDGNSIVGICFVGYINHSMRAGLLLGPLCGVILIGGYFITRGMVMLFGLKHFANDIKSTSASNKIHLIIMRMGVCALLTLVFILVAIACHVTEFRHADEWAQSFRQFIICKISSVFEEKSSCRIENRPSVGVLQLHLLCLFSSGIVMSTWCWTPSSIETWKRYIRKKCGKEVVEEVKMPKHKVIAQTWAKRKDFEDKGRLSITLYNTHTDPVGLNFDVNDLNSSETNDISSTWAAYLPQCVKRRMALTGAATGNSSSHGPRKNSLDSEISVSVRHVSVESRRNSVDSQVSVKIAEMKTKVASRSRGKHGGSSSNRRTQRRRDYIAAATGKSSRRRESSTSVESQVIALKKTTYPNASHKVGVFAHHSSKKQHNYTSSMKRRTANAGLDPSILNEFLQKNGDFIFPFLQNQDMSSSSEEDNSRASQKIQDLNVVVKQQEISEDDHDGIKIEELPNSKQVALENFLKNIKKSNESNSNRHSRNSARSQSKKSQKRHLKNPAADLDFRKDCVKYRSNDSLSCSSEELDVALDVGSLLNSSFSGISMGKPHSRNSKTSCDVGIQANPFELVPSYGEDELQQAMRLLNAASRQRTEAANEDFGGTELQGLLGHSHRHQREPTFMSESDKLKMLLLPSK
# Assay: immunofluorescence, Hh-induced plasma membrane vs ER marker, Cl8
# Details: glycan lost; control: wild type dSmo
row,Protein,localisation_or_trafficking
1,B1,no change
2,B2,decreases
3,B3,no change
4,B4,no change
5,B5,decreases
6,B6,decreases
